Laboratory results from the domain aggregation screens of Martell et al. (2025).

Assay: soluble fraction after stress (log2 fold change); higher = more stays soluble; pooled small domains, quantitative proteomics
Conditions: stress: pH 4
Outline: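 High-throughput quantitative proteomics was run on pooled custom libraries of small protein domains following pH 4 stress. Fold changes are on a log2 scale; higher values mean more of a domain remained soluble. The fold change in soluble amount is taken as a measure of aggregation propensity.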

| Sequence | soluble fraction (log2) |
| --- | --- |
| HMGRPWRIGDVVNVSRPTGDGGGFTKGLITRIYPTTVQVTWNPDLQHARPWTTMEKKQYLIFVYHDDE | ≥ 0.43 |
| HMIPKIIDITDLNEEVREVIEEYMKRKRVEKYHIYQDSKGQIFIISGSAIIRYDSKLNNLYYL | -0.395 |
| HMGGTAGKINAIGVNFRTGPSTSYTSLGLLGKDTAVTVIGTSGKWYKVTIVSTGKTGYVYATYVNLTP | -0.102 |
| HMDDVIDVYATYDKSAEGVLSNIQLFSNQKKTTPITPESGKIYIDVEGNYQFRWTGTQYATV | -0.09 |
| HMSQNTHTIPSREDILGIFRSVNAPLDPQSLGKTLQVHADSMDVLVRRLKAMERDGQLKSDASGVFSLAD | 0.314 |
| HMNAEWMFDARKIPGLVMNYLRRIAVRAIEEKHYSPELVADLFGIDRTSIYDWLRKYRQQGEEALDTRKA | 0.0142 |
| HMKQQTRAELLDEFAKAHAERGLYFNRDYEQGEIQALQPDKAREYLQSALEARTERQQASEQDR | 0.266 |
| HMREYVGLSPFNKEKTPSFYVNDEKGQFFDFSSGKNGDLITFLQETERLTFMEAVERLAAEAGLPMPA | -0.617 |
| HMEEVIEVEGKITAVLPSTMFRAELENGHQVLAHISGKLRKHFIKITVGDIVKMEMSTQDLQKARIV | -0.831 |
| HMPNLAAAIGARVTIRLREASGGFRDIVGTLQRFGDGVNELLNSKGQIISFSEDEIAIWREIK | -0.326 |
| HMIRVVSIEDQPWFVAADVLKSLGMPTDKGVGKYLLALGSDERMLTTHGQIGGKGMAVTTIISESGLY | -0.703 |
| HMLEKDIGKAITILRKSYQLSISAFSMRTGYSRVHISEVESGKRKATDELISVIRNVFHLDSNWPF | -0.517 |
| HMQSRRTPASLVERVRQLNGQYQDKEIAELLNREGIKTAHGNEFNAKRIEMIRRHNGISKHSAQ | -0.0944 |
| HMESKITTAEAAAILNASPQFVRVAMQRGILNIGIAMQMPNSNKWTYNISPKLLGEYSGKNIEYELERLR | -0.692 |
| HMVMSVGENIAYFRKKLGLTQEMLSERIGVTAQAVSKWENGVTNPDISLLPRISEALGIGIGDLFD | -0.218 |
| HMVSRQINVIPDDLAGLRLDQALAHLFPQHSRSRLKEWLLEDIIIVQGGPKRPKDIVSGGEIVEIKL | -1.2 |
| HMVDERMVTYINSLDKGNTPFLNELEKEALANYVPIIRREMQSFLKVLLQIKAPLRILEVGTAVGFSTILM | -0.354 |
| HMSYANVEWRDFLNSLDEKYRIVVILYYVQGFKTREIAEILQINQSTVRGRLAKAREKLEQQYN | -1.13 |
| HMKAQVKSVLDDIPGIGQTRRKALMRYFKSLEKIREASVEELKEADAMNERAAQSVYAFFHK | -0.222 |
| HMLVSVSNYLGQNVDTVKSDLEALGLVVKLKEQQTDRESENGAVLEQSIEGGSKVSAGTPITLTYGK | -0.00697 |
| HMADTSPEGVQKLIKAFEQFGVSKDDIEGFIQRRVDAITPANVVSLRKIFTSLRDGMSSAKDWFKGA | -0.325 |
| HMSLPALSAEEQKIVDALHGTPKGVDDIIAETGISSGALLRSLTMLELKKVIVRLPGNRIAPK | 0.113 |
| HMAEWIYGKNVVKQSIEEGMVLKLILQRKEDPLFVLAQEKQIPVEILDRHKMTSLVKSDRHQGVAAQI | -0.645 |
| HMAKSDLNYLDFKSKLEAGEIAKASVIRNEDTFKVTLQNGEVYNVTSPDYEDFRKELLEAGVDIQVSK | 0.022 |
| HMSVKIELNENEQAIFTAVQKVNEAVLPELRAQFSDMSNKAWDNSVKMLTKNNLLKVSKEGEILYIRM | 0.0421 |
| HMDIIIEEGIDESLSTDDAILDLLGRASDAFSNAQKALLEGDLGSYQKLIEQAERLVKKATELLGENN | -1.1 |
| HMENVIYGINGPVVTVRNSRSFSMMEMVFVGNERLVGEVIGITDKITTIQVYEETTGLRPGEPVYGTGSPM | -0.842 |
| HMSPQIDYFDDEELDVYRQIAPEAYTDEQIEVFRDILYTLRPEEVEEWLISLEKREINLPLILRQEAIELI | 0.156 |

| Sequence | soluble fraction (log2) |
| --- | --- |
| HMKIPQFAVIKQYLEQQIKTAQWAPGRQIPTEQSLADTFSVSRMTARRAVQQLADAGLLERTQGSGTFVAD | -0.053 |
| HMQTLQTTSLRVSENQLFILDQQALPQEKRWLAADNVALLVDHIHTLRVRGAPLIGLSASLLLALLAGRLT | -0.764 |
| HMRFMRVSQSKSKNSTSLYIIESVYTKDNKHTTRIVKKLGTVEELSKEHEDPLAWAKEVAKQMTEEAEQN | -0.508 |
| HMSDIDIDVENDRAALAIAGGKLNHLVGARGEVLDALQELTRLAVQTSLGERSRLMLDIDNFRSD | 0.0463 |
| HMAVVQMVDRPGGLDELLKDVVRAGVNFANAYGRTASDGNSAFFVIDIQDIPGARQKLADVGLQILADEAV | -0.512 |
| HMWSGEPFLDELRHADTLLETDPEAALAEYRALADKGSAAAMMALGNAYASGSHVARDEGEAEHWYRRAA | -0.752 |
| HMSGEIPFPPAFKPSADHIAIASEKGINIETELLNFRDYHQARGTKLIDWNSAFRVWLRNAR | -0.869 |
| HMASFGDLSGLKRTYPPQGLPDASRIADFLIARNEGDLSVEQVKALERFLFEHPDHERTARLVAATRVPA | -0.115 |
| HMSKHLWNKVLPKVTTANITNLINQAIRKGEWRMDNKGVVHIIWRYRGKIIEVTGYLKDKVFNVGNAWVR | -0.134 |
| HMARGTRTRAKLLAAAEVVFARYGYTEASIERITEEAGVGQGTFYLYFASKLEIFEELVDDLNR | -1.07 |
| HMQHRSRALHLQEELVRRYYDQAIAPFMIFWEMKANVTLDQLKELRAVVSPSLNEHPYTKQLDEYIRLAE | -0.275 |
| HMASDQGAGALREVSAFFEKHGRVPDPDAVDHDEMRLGSIWASIKSAPTDQMRLEDRFGLLD | -0.613 |
| HMTEKIEWYKEVLDLEPNSKIFFPLAKMLEKEGELEEARRVLAEGVSRHEEFLEARLFYISVLSRL | -1.05 |
| HMSRREEALIALAQRVARQVARTKQPVTLEPMPANERRVIHVALRDNPDVETRSSGEGDQRRVTVYPRQ | 0.202 |
| HMVDIVLDILKIVAEKQPGNQFSQSILMQYQERGGLSKKQLEGLYGKAKRIPEIPQNKLATLEAIILR | -0.428 |
| HMGNWENVEKETTEAIMAVKNGEAVWVDLAPANRMIRQMQHELVEQYGLLSQSYGKEPKRRIRIFQNP | 0.0117 |
| HMDAPHPSVVQVYFESRDRSWTYYNDRFDLHEGDLVYVEGKLEGVRGRVVEVSYNFRIKLADYKRVIAVA | -0.122 |
| HMEQLESAVASRTLIGQAQGVIMERYGLSAPNAFSVLSRISQDSNTKLAEVAQQIVATRRIPG | 0.0508 |
| HMSSHSAEAVRHRIKSMIDHEARDGDVLSDDRIVELLNQAGIDIARRTVAKYREALRIPSSVERKRRLKA | 0.0173 |
| HMRNMRKLWIARINAAARMNDISYSKLMHGLKLANVEINRKMLSEMAIDDPKSFTALVETAKKALNG | 0.303 |
| HMIQSEQIPFSKFLKEVDSGRVVQVEIQGNNINGVLSDGSKFKTYSPNYPELVGKLSDKGVSIVASPV | 0.0829 |
| HMLEPGQKVKSVVVDISGDLIYIDLGGKTEGVVELKEFYDEAGEYHVKPGDEIEVFFVSVQNGLKRFTT | -0.403 |
| HMTSRLLTPRQRYVFDTAMKEGFYDVPRRITLTELASVLDVAKSTLSAQLHRIESTVHHAYADDIRRRS | 0.0724 |
| HMTPLILTAQEGGERLDAFVASQVEDLTRSAAQRLLEQGAVTSGGKPLKKNAKTTPGMVVEVLLPDPQ | -0.0145 |
| HMNKDEFLRRLEDALSGEVPASVIRENLNYYADYLSQELGKGRTMDEIIEEIGEPNIVARTIINSAEAA | -0.602 |
| HMVTEIDYGAFIKMTEEGNIGEVKIEDNQIVFTDKENKAIYKTGIMPDSDLTQRLYDSGAVFA | -1.27 |
| HMSRRIEIELTSSRPDGSWTWRAAGAREPKGVLDGTLLSQGSKPGDVVKAEAEFDIDGITIVSITQ | 0.0267 |
